# Publication PMC9405769, “The Crystal Structure of the Defense Conferring Rice Protein OsJAC1 Reveals a Carbohydrate Binding Site on the Dirigent-like Domain” (Biomolecules, 2022)
# B1: OsJAC1-DIR domain (His-tag cleaved by thrombin) (domain or fragment, rice (Oryza sativa))
# chain: SKLQITPCGMLVQGNQINFTKLYLHHTPAGPEQNQSAVTSNDKKTGLGCIVVNNWSVYDGIGSDAKLVAYAKGLHVFAGAWHNSFSLVFEDERLKGSTLQVMGLIVEEGDWAIVGGTGQFAMATGVILKKMQEQKQYGNIIELTIHGFCPLLKGS
# notes: DIR (dirigent) domain, the N-terminal domain of the monocot chimeric jacalin OsJAC1, rice (Oryza sativa); traced residues include Lys6 (chain B), and the C-terminus of the model of chain A (cf1) is at Leu155; also called DIR-cf1; DIR-cf2; source: prepared as previously described in Huwa et al. (2021) [25]; His-tag removed with thrombin, no further purification
# B2: OsJAC1-JRL domain (His-tagged, crystal form 1) (domain or fragment, rice (Oryza sativa))
# chain: QCPVTKIGPWGSSHEGTVQDITESPKRLESITLYHGWSVDSISFTYLDHAGEKHKAGPWGGPGGDPIMIEFGSSEFLKEVSGTFGPYEGSTVITSINFITNKQTYGPFGRQEGTPFSVPAQNNSSIVGFFGRSGKYINAVGVYVQPI
# modifications: symmetric inter-subunit disulfide bond at Cys161 (Cys161-Cys161)
# notes: JRL (jacalin-related lectin) domain of the monocot chimeric jacalin OsJAC1, rice (Oryza sativa); the model's termini are Gln160 and Pro305 of full-length OsJAC1 (residue range 160-306 used for superposition); also called JRL-cf1; OsJAC1-JRL (cf1); source: prepared as previously described in Huwa et al. (2021) [25]
# B3: OsJAC1-JRL domain (Strep-tagged, crystal form 2) (domain or fragment, rice (Oryza sativa))
# chain: B2 chain
# modifications: symmetric inter-subunit disulfide bond at Cys161 (Cys161-Cys161)
# notes: JRL (jacalin-related lectin) domain of the monocot chimeric jacalin OsJAC1, rice (Oryza sativa); residue range 160-306 of full-length OsJAC1 used for superposition; also called JRL-cf2; OsJAC1-JRL (cf2); source: prepared as previously described in Huwa et al. (2021) [25]
# Key:
# [1] = biological target: the molecule itself; assay: crystal structure; DIR-cf1: protein in 15 mM Tris-HCl pH 7.4, 1 mM DTT, 6.25 mg/mL; reservoir 0.2 M CaCl2, 20% (w/v) PEG 3350; sitting drop, 20 °C; space group P212121; three chains per asymmetric unit
# [2] = biological target: the molecule itself; assay: crystal structure; JRL-cf1: protein in 25 mM sodium phosphate pH 7.0, 10 mg/mL; reservoir 0.05 M MES pH 6.0, 28% (w/v) PEG 3350; sitting drop, 20 °C; non-reducing; space group P212121; two chains per asymmetric unit
# [3] = biological target: the molecule itself; assay: crystal structure; JRL-cf2: protein in 25 mM sodium phosphate pH 7.0, 11 mg/mL; reservoir 0.2 M NH4I, 20% (w/v) PEG 3350; sitting drop, 20 °C; space group C2221; two chains per asymmetric unit
protein,measurement,setting,value
B1,stoichiometry N,[1],3
B2,stoichiometry N,[2],2
B3,stoichiometry N,[3],2
